Data taken from patent US20120064065A1 (AC IMMUNE S A, published 2012).

Assays:
murine Aβ1-42 peptide = molecular target: T1, murine Aβ1-42 peptide (murine, UniProt P12023 672-713); test: Aβ ELISA
T1 construct: domain: Aβ1-42
T1 peptide (looked up): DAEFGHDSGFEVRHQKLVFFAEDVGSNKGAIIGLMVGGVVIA

[1] = molecular target: T2, human FcγRIIIa-V158, extracellular domain with C-terminal Gly/6xHis/GST tag (human, UniProt P08637 17-208); test: ELISA, cross-linked antibody on anti-GST-captured FcγRIIIa-V158
T2 construct: extracellular domain; Made by Genentech; captured on the plate through an anti-GST antibody; V158 is the allotype as printed; not shown: Gly/6xHis/glutathione S transferase (GST) polypeptide tag at the C terminus
T2 sequence (P08637 17-208 F176V): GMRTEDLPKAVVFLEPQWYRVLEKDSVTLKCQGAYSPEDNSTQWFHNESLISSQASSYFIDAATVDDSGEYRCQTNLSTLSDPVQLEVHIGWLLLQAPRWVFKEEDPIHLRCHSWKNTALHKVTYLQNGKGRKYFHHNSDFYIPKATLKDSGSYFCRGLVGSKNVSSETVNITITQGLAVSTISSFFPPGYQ

B1: MABT humanized anti-Aβ IgG4 monoclonal antibody (antibody)
heavy: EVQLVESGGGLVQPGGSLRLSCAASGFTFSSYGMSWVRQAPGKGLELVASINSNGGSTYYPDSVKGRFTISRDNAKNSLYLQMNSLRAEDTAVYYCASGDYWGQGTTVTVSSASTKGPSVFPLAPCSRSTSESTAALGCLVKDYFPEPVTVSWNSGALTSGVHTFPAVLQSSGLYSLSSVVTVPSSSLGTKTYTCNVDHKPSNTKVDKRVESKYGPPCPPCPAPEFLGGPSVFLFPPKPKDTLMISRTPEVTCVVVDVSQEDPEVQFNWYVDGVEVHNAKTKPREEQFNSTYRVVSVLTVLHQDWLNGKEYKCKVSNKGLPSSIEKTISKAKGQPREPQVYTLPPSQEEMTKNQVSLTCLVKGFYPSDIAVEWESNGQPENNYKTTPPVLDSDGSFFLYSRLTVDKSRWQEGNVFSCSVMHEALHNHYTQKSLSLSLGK
light: DIVMTQSPLSLPVTPGEPASISCRSSQSLVYSNGDTYLHWYLQKPGQSPQLLIYKVSNRFSGVPDRFSGSGSGTDFTLKISRVEAEDVGVYYCSQSTHVPWTFGQGTKVEIKRTVAAPSVFIFPPSDEQLKSGTASVVCLLNNFYPREAKVQWKVDNALQSGNSQESVTEQDSKDSTYSLSSTLTLSKADYEKHKVYACEVTHQGLSSPVTKSFNRGEC
notes: also called anti-Aβ MABT; MABT IgG4
Q: Does B1 bind (murine Aβ1-42 peptide)?
A: binds

Q: Does B1 bind [1]?
A: binds
